For test [1], the target named is T1, UFC1 (Homo sapiens, UniProt Q9Y3C8).
T1 construct: Full length UFC1, residues 1–167; modified ubiquitin tag (Ub19) with TEV site (N, cleaved yes); made in house; host or cells: E. coli T7 Express
T1 sequence (Q9Y3C8 1-167): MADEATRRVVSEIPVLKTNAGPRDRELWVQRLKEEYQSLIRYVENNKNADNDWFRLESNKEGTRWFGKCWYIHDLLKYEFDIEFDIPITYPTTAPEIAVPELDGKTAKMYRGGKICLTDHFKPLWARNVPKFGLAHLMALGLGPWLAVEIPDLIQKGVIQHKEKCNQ
The experiment in a line: NMR titration with UFC1. It counts as binding. The note with it: [15N,1H] TROSY-HSQC, 25 °C. How it is done:
To understand the role of the UBA5 C-terminal region in coordination of the binding events reported above on the molecular level, we performed NMR titration experiments. […] It seems, that these UBA5 residues form additional interactions with UFC1.
All NMR experiments were performed at a sample temperature of 25 °C on Bruker 600, 700, 800, 900, and 950 MHz spectrometers equipped with cryogenic probes, and a 500 MHz spectrometer equipped with a room-temperature triple-resonance probe. All NMR spectra were analyzed with the Sparky 3.114 software (University of California, San Francisco, USA). For NMR titration experiments, the non-labeled UBA5 peptides were titrated to 100 µM ^13C,^15N-labeled UFC1 to a final molar ratio of 1:8 (UFC1:UBA5 peptide). Conversely, 100 µM ^13C,^15N-labeled UBA5 peptides were titrated with non-labeled UFC1 to a final molar ratio 1:4 (UBA5 peptide:UFC1). 2D ^1H-^15N correlation spectra ([^15N,^1H] TROSY-HSQC) were recorded at each titration point. The same types of spectra were recorded to estimate binding of ^13C,^15N-labeled UFC1 (75 µM) to non-labeled UBA5, UBA5~UFM1 and UFM1 at 1:2 molar ratios. CSP values, Δδ, were calculated for each individual amide group using the formula Δδ = [(ΔδN/5)^2 + Δδ^2HN)]^1/2.

A further test addresses T2, UFM1 (Homo sapiens, UniProt P61960).
T2 construct: Full length UFM1, residues 2–83; modified ubiquitin tag (Ub19) with TEV site (N, cleaved yes); made in house; host or cells: E. coli T7 Express
The experiment in a line: Gel filtration and electrophoresis of UBA5 C250K~UFM1 conjugates with excess UFM1. It counts as binding. As to conditions: gel filtration, Superdex 200 10/300, 4 times molar excess of UFM1, electrophoretic analysis. From the text: Figure 4 Interaction studies between full length UBA5 and UFC1 proteins. (A) Gel electrophoresis of ufmylation assays including UBA5 FL^1–404 (left plot) and UBA5 ΔR3^1–380. (B) UFC1 binding to full length UBA5 (left plot) and full length stable UBA5~UFM1 conjugate (right plot) observed by ITC experiments. […] KD values are indicated. (C) Gel-filtration profiles of the FL^1–404 C250K~UFM1 conjugates in presence of 4 times molar excess of UFM1 (red lines) and UFC1 (black lines). The peak subjected to electrophoretic analysis is indicated by an asterisk. (D) Scheme of reactions involving UBA5 in the ufmylation cascade. The structures of UBA5 AD (brown), UFM1 (cyan) and UFC1 (grey) are represented as ribbon diagrams; the UBA5 unstructured C-terminus containing regions R1 (orange), R2 (green) and R3 (violet) is shown as dashed lines. The structures were generated from PDB entry 5IAA [29]. * indicates regions of another UBA5 molecule involved in the in trans transfer of UFM1.
For stable UBA5~UFM1 conjugation, 70 µM UFM1, 20 µM FL^1–404 C250K and 1 mM ATP were added to ufmylation reaction buffer (50 mM HEPES […], 100 mM NaCl, 5 mM MgCl2). For NMR analysis, resulting complexes were concentrated and equilibrated with ITC/NMR buffer. To analyze complex formation by ufmylation assay 300 µL of sample were loaded onto a Superdex 200 10/300 column (GE Healthcare, München, Germany).
(In general: Size exclusion chromatography separates by hydrodynamic size, large species first.)

For test [2], the target named is T1, UFC1. The experiment in a line: ITC, UBA5 constructs vs UFC1. The class given is binding. The note with it: for N: ITC stoichiometry; for N / ΔG / ΔS / −T*ΔS / KA*10^−6 / Kd: UFC1 titrated to full length UBA5; for N / ΔH / KA*10^−6: ± = fitting error; for ΔG / ΔS / −T*ΔS / ΔH / KA*10^−6 / Kd: ITC, 25 °C; for ΔH: UFC1 titrated to full length UBA5 (FL^1–404 or FL^1–404 C250K~UFM1), single profile; for ΔH / Kd: 25 mM HEPES pH 7.5, 100 mM NaCl; for KA*10^−6: value is KA × 10^−6; for Kd: VP-ITC, one-site model, single ITC profile. From the text: To understand how the UBA5 C-terminus participates in the ufmylation cascade, we performed isothermal titration calorimetry (ITC) experiments, in which we titrated UBA5 C-terminal peptides (see Table 1) to the UBA5 AD, UFC1, UFM1 and representative LC3/GABARAP proteins (Figure 2A, Supplementary Figure S2A–D and Table 2).
To investigate if conjugation of UFM1 to the UBA5 catalytic cysteine (C250) affects the UFC1:UBA5 interactions, we prepared full length UBA5 C250K mutant and stably conjugated UFM1 to it as reported before for a number of ubiquitin-specific E2 enzymes. We compared the UFC1 spectra after addition of a twofold molar excess of FL^1–404 and FL^1–404 C250K~UFM1 constructs (Supplementary Figure S5C).
All proteins and peptides were expressed in E.Coli T7 Express (New England Biolabs GmbH, Frankfurt, Germany) cells in LB or M9 (to obtain ^15N- and ^13C,^15N-labeled polypeptides) media according to the protocol described in [33, 36]. For protein purification, bacterial cell pellets were resuspended in lysis buffer (50 mM Tris-HCl pH = 7.5, 100 mM NaCl, 5% glycerol, 5 mM PIC (protease inhibitor cocktail)) and lysed via sonication (TT13 Sonotrode, 40% amplitude, for 6 × 1 min with a 0.5/0.5-s pulse). Lysates were centrifuged for 45 min at 17,000× g at 4 °C. Supernatants were loaded onto a His Trap Fast Flow 5 mL column (GE Healthcare, München, Germany) equilibrated in loading buffer (50 mM Tris-HCl pH = 8.0, 250 mM NaCl, 1% glycerol, 20 mM imidazole). The column was washed with loading buffer for 5–10 CV and protein was eluted with elution buffer (50 mM Tris-HCl pH = 8, 250 mM NaCl, 1% glycerol, 400 mM imidazole). Simultaneous TEV cleavage (1 mg TEV protease was added to 100 mg peptides/proteins) and buffer exchange to loading buffer via dialysis was performed over night at 4 °C. After reverse IMAC, proteins were concentrated with conical concentrators (Millipore Merck, Darmstadt, Germany) and loaded on a Superdex 10/60 75 or 200 column (GE Healthcare, München, Germany) for further purification and equilibration with ITC/NMR buffer (25 mM HEPES pH = 7.5, 100 mM NaCl). For structural NMR spectroscopy, buffer containing 50 mM Tris-HCl pH = 7.5, 100 mM NaCl was used. Prior to NMR experiments, TCEP and protease inhibitors cocktail were added to the samples to final concentrations 1 and 5 mM, respectively. Purified peptides and protein were concentrated and stored at −80 °C. The protein and peptide concentrations were calculated from the UV absorption at 280 nm by Nanodrop spectrophotometer (Thermo Scientific, Langenselbold, Germany).
All ITC experiments were performed at 25 °C using a VP-ITC microcalorimeter (Malvern Panalytical Ltd., Malvern, UK). Peptides in concentration of ~400 µM were titrated into 20–25 µM solutions of corresponding binding partner at a stirring speed of 307 rpm. The raw data were corrected on the dilution heat of peptides obtained in independent experiment (titration of the peptide in syringe into the ITC/NMR buffer in the measuring cell). Pre-titration delay was set to 180 s, interval between titration steps was experimentally adjusted to avoid kinetic contribution to the observed heat effects and set to 200 s. A single ITC profile was collected for each type of interaction. The ITC data were analyzed based on a “one-site” binding model with MicroCal ITC software implemented in Origin 7.0.
A general note: In ITC the heat of successive injections is recorded.

Test [3] addresses T1, UFC1. Kind of test: In vitro thioester formation (ufmylation) assay, UFC1~UFM1 conjugate. It counts as biochemical. How it is done:
First, we analyzed the effect of the UBA5 C-terminus on UFM1 transfer to UFC1 with an in vitro thioester formation assay (Figure 1B–E).
Ufmylation reaction assays were adopted from work of Xie. Briefly, 70 µM UFM1, 20 µM UFC1 and 20 µM of different UBA5 constructs were mixed in reaction buffer (50 mM HEPES pH = 7.5, 100 mM NaCl, 5 mM MgCl2). After starting the reaction with addition of 1 mM ATP, the reaction mix was incubated at 22 °C for the desired time. To quench the reaction and prepare electrophoretic samples, 1 µL of the reaction mix was added to 99 µL 1x non-reducing SDS loading buffer and frozen in liquid nitrogen. Sample content was visualized by sodium dodecyl sulfate polyacrylamide gel electrophoresis (SDS-PAGE). The transfer to polyvinylidene difluoride (PVDF) membrane was performed via a Trans-Blot® Turbo™ Transfer System (Bio-Rad, München, Germany). After transfer the membrane was blocked with TBST (Tris-buffered saline with Tween20 buffer, 20 mM Tris, 150 mM NaCl and 0.1% TWEEN 20) containing 5% w/v nonfat dry milk for 1 h, followed by α-UFC1 antibody incubation over night at 4 °C (ab189251 abcam, 1:10,000 in TBST containing 5% w/v nonfat dry milk). After washing with TBST the membrane was incubated with secondary antibody (anti-rabbit-HRP) for 1 h at RT and again washed with TBST. Detection was performed by addition of ECL solution. For quantification of UFC1 ufmylation coloc2 software implemented in ImageJ was used.

The subject of the next test is UFM1, UFC1. The note with it: cited from earlier work. An excerpt:
The role of this region is not understood, and no interacting proteins could be identified so far. […] Ufmylation is essential for embryonic development. The A371T mutation was described previously to be present in patients suffering from severe infantile-onset encephalopathy. […] Our ITC experiments with C-terminal UBA5 peptides containing the A371T or its phosphomimicking A371E mutations (loca ...

Like-named read-outs stand apart in the source and are kept apart here.

T2 sequence (P61960 2-83): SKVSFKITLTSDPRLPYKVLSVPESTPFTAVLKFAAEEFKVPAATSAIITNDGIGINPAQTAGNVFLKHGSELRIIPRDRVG

Regarding “FL^1–404 C250K~UFM1: full length UBA5 C250K mutant with UFM1 stably conjugated to it”, the “interaction with UFC1 (in words)” value with UFC1 [1] is “no significant enhancement of the UBA5:UFC1 interaction”. Also, the “non-conjugated UFM1 in conjugate peak” value with UFM1 is reported as “contains non-conjugated UFM1”. In addition, in the test with UFC1 [2], the N is listed as 1.03 ± 0.009, the ΔG was -33.9 kJ/mol, the ΔS is reported as −0.34 cal mol^−1 K^−1 and the “−T*ΔS” value came out at 0.418 kJ/mol. Besides, in the test with UFC1 [2], the ΔH was -34.4 ± 0.042 kJ/mol, the “KA*10^−6” value was 0.87 ± 0.05 M^−1 and the equilibrium dissociation constant (Kd) (commonly the equilibrium constant for the complex coming apart) was 1.2 µM.

With “FL^1–404: Full length UBA5, residues 1–404”, the “interaction with UFC1 (in words)” value with UFC1 [1] is listed as “did not observe significant CSPs (shift or disappearance of the UFC1 resonances) in comparison to the spectra of the UFC1:R3^381–404W complex”. In addition, in the test with UFC1 [2], the N is reported as 0.97 ± 0.009, the ΔG was -33.5 kJ/mol, the ΔS was determined as 1.26 cal mol^−1 K^−1 and the “−T*ΔS” value is -1.59 kJ/mol. Moreover, in the test with UFC1 [2], the ΔH was -31.9 ± 0.042 kJ/mol, the “KA*10^−6” value is 0.72 ± 0.04 M^−1 and the Kd is 1.4 µM. Moreover, the “UFC1 conjugated to UFM1 (UFC1~UFM1)” value in the test with UFC1 [3] (within 30 min, 70 µM UFM1, 20 µM UFC1, 20 µM UBA5 construct, 1 mM ATP, 50 mM HEPES pH 7.5, 22 °C, Western blot, triplicates) was ~ 90%.

Regarding “UBA5 A371T mutant: A371T mutation in the human UBA5 protein, literature”, the “effect of UBA5 A371T mutation on UFM1 activation / transfer” value in the test with UFM1, UFC1 is “slightly reduced UBA5 thioester conjugation with UFM1 and reduced enzymatic activity in trans-thioesterification of UFC1”; in the test on UFM1, UFC1 (listed as A371T mutation) it was “decreases the ability of UBA5 to activate UFM1, to transfer the activated UFM1 to UFC1 and to mediate UFBP1~UFM1 formation”.

“ΔR3^1–380: UBA5 with deleted R3 region, residues 1–380”: in the test with UFC1 [1], the “interaction with UFC1 (in words)” value is on record as “did not interact with UFC1”. The “UFM1 transfer to UFC1, ΔR3^1–380 vs FL^1–404 (in words)” value with UFC1 [3] (reactions started with 25 µM ATP) is listed as “significantly slowed down UFM1 transfer to UFC1”.

Source of the values: paper PMC8304084, “A Concerted Action of UBA5 C-Terminal Unstructured Regions Is Important for Transfer of Activated UFM1 to UFC1” (International Journal of Molecular Sciences, 2021).
